Measured values as given in patent publication CN116003603A (CR BIO MEDICAL INC, dated 2023).

Key:
[1] = target: T1, CLDN18.2 (antigen of the ka/kd/KD measurement, species and form not stated); experiment: affinity measurement, method not described (Table 2-2, headed P1530)
[2] = target: T2, CLDN18.2 (on CLDN18.2过表达细胞, species not stated); experiment: flow cytometry, antibody titration on CLDN18.2 over-expressing cells, MFI (Table 2-2, headed P1530)
T2 construct: whole, on cells

[3] = target: T1, CLDN18.2 (antigen of the ka/kd/KD …); experiment: affinity measurement, method not described
[4] = target: T2, CLDN18.2 (on CLDN18.2过表达细胞, species not …); experiment: flow cytometry, antibody titration on CLDN18.2 over-expressing cells, MFI

T1 sequence (P56856 other isoform, or with tags, fused parts or gaps): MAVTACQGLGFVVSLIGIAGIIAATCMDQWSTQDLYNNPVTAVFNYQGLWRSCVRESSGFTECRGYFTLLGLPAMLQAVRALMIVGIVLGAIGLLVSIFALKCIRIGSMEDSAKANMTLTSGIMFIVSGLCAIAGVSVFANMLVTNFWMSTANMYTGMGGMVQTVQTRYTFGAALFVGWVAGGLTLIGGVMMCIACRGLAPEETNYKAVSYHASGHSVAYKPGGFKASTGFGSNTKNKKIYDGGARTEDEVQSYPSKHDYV

Row | Kd [1] [nM] | koff [1] [s⁻¹] | kon [1] [M⁻¹ s⁻¹] | EC50 [2] [µg/mL] | Kd [3] [nM] | koff [3] [s⁻¹] | kon [3] [M⁻¹ s⁻¹] | EC50 [4] [µg/mL] | Binder
1 | 6.8 | 0.00355 | 523000 | 0.62 |  |  |  |  | CLDN-BC-P1530-hH1 (antibody, V domains shown, also called P1530-IgG1) VH: QVQLVESGGGLVQPGGSLRLSCAASRFTFSNYAMNWVRQAPGKGLEWVSSISGSGGSSYYADSVKGRFTISKDNSQNMLYLQMNSLRAEDTAVYYCAKADWKYGYYGMDVWGQGTTVTVSS VL: not shown
2 |  |  |  |  | 5.9 | 0.00293 | 497000 | 0.69 | CLDN-BC-P1531-hH1 (antibody, V domains shown, also called CLN-P1531-hH1; P1531-IgG1) VH: QVQLVESGGGLVQPGGSLRLSCAASRFTFSNYAMNWVRQAPGKGLEWVSSISGSGGSSYYADSVKGRFTISKDNSQNMLYLQMNSLRAEDTAVYYCAKADWKYGYYGMDVWGQGTMVTVSS VL: not shown
